Measurements reported in the supplement of paper PMC12667976.

B1: library; numbered along this chain (parent)
chain: MATDAALRRLLRLHRTEIAVAVDSAFPLLHALADHDVVPEDKFQETLHLKEKEGCPQAFHALLSWLLTQDSTAILDFWRVLFKDYNLERYGRLQPILDSFPKDVDLSQPRKGRKPPAVPKALVPPPRLPTKRKASEEARAAAPAALTPRGTASPGSQLKAKPPKKPESSAEQQRLPLGNGIQTMSASVQRAVAMSSGDVPGARGAVEGILIQQVFESGGSKKCIQVGGEFYTPSKFEDSGSGKNKARSSSGPKPLVRAKGAQGAAPGGGEARLGQQGSVPAPLALPSDPQLHQKNEDECAVCRDGGELICCDGCPRAFHLACLSPPLREIPSGTWRCSSCLQATVQEVQPRAEEPRPQEPPVETPLPPGLRSAGEEVRGPPGEPLAGMDTTLVYKHLPAPPSAAPLPGLDSSALHPLLCVGPEGQQNLAPGARCGVCGDGTDVLRCTHCAAAFHWRCHFPAGTSRPGTGLRCRSCSGDVTPAPVEGVLAPSPARLAPGPAKDDTASHEPALHRDDLESLLSEHTFDGILQWAIQSMARPAAPFPS

Variants of: B1
Test: AIRE transcriptional activation functional score (insulin promoter-GFP; nonsense median 0, synonymous median 1) (normalised score); higher = higher AIRE activity (more reporter activation)
Details: with insulin promoter-GFP reporter in HEK293
Method: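 Deep mutational scan of full-length human AIRE (codon-optimized cDNA, DT-POPCode NNN libraries over three regions) integrated at a Bxb1 landing pad in HEK293 cells carrying an insulin core promoter-GFP reporter at a Flp-In site. Cells were sorted for the top 10% GFP about 14 days after transfection. Variant frequency log-ratios (select vs non-select, TileSeq) were rescaled so that the nonsense median is 0 and the synonymous median is 1, then averaged over biological replicates.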

AIRE transcriptional activation functional score of substitutions, site by site:
A138: L 1.27; W 1.66; N 0.5; D 0.727; V 1.1; M 2.84; C 1.51; E 1.11; R 1.19; S 0.847; G 0.96; T 0.99; H 0.328; Y 1.36; P 0.857; I 1.06; K 0.889; F 1.13; Q 0.334
K133: N -0.0115; M -0.0607; R 1.43; I -0.178; L -0.0606; V -0.175; S 0.436; E 0.0731; D 0.12; W -0.155; H 0.287; F -0.0481; C 0.0795; T 0.351; P 0.469; Y -0.0322; G 0.153; Q -0.167; A -0.0211
S135: F 1.13; G -0.37; Q 1.13; E 1.38; H 1.48; D 1.56; P 0.181; M -0.155; N 0.753; V 0.924; T 2.07; C 0.747; I 1.2; K 1.43; A 2.31; L 1.04; W 1.79; Y 0.884; R 0.761
A144: P 1.65; F 1.26; M 0.931; C 1.04; D 0.251; W 1.99; T 1.02; R 0.836; N 0.39; E 0.655; L 1.17; K 0.364; H 0.0775; S 0.773; Y 1.48; V 1.1; I 0.989; Q 0.126; G 1.31
A141: F 1.77; N 0.447; V 1; E 1.49; R 1.02; K 1.19; T 0.967; M 0.533; P 0.97; C 0.959; S 1.01; H 1.12; D 1.25; Y 1.66; L 1.36; I 0.758; W 1.18; Q 1.24; G 1.28
P148: S 1.19; F 1.53; E 1.67; Q 1.14; T 1.29; C 1.31; V 1.45; M 0.633; I 1.49; L 1.45; Y 1.97; D 0.772; H 0.972; K -0.163; G 0.361; R 0.931; A 0.746; W 0.0844; N 0.598
G150: F 1.34; E 0.763; L 1.3; I 1.08; A -0.308; K 1.53; C 1.38; M 0.246; H 1.19; D -0.34
R132: Y 0.288
A145: C 1.07; N 0.349; S 1.4; E 0.0573; H 1.37; Y 1.66; L 1.19; D 0.593; M 0.474; Q 1.12; G 1.29; V 0.722; P 0.887; K 0.907; T 1.21; W 2.05; R 0.804; F 1.23; I 0.806
R139: P 0.0776; Q 1.35; A -0.0134; Y 1.25; I 1; W 1.54; H 0.679; N 0.522; D 0.568; F 1.51; S 0.893; C 0.377; V 0.965; E 0.912; T 0.641; M 1.04; G 1.2; K 1.37; L 1.19
L146: Q 1.05; D 1.73; G 0.344; S 1.03
